Where two headings read alike, the source gives them in different places.
Experiments:
[1] = biological target: T1, RecN (Bacillus subtilis, UniProt P17894); assay: EMSA, nucleotide-dependent RecN-ssDNA complex; type: binding
T1 sequence (P17894 1-576): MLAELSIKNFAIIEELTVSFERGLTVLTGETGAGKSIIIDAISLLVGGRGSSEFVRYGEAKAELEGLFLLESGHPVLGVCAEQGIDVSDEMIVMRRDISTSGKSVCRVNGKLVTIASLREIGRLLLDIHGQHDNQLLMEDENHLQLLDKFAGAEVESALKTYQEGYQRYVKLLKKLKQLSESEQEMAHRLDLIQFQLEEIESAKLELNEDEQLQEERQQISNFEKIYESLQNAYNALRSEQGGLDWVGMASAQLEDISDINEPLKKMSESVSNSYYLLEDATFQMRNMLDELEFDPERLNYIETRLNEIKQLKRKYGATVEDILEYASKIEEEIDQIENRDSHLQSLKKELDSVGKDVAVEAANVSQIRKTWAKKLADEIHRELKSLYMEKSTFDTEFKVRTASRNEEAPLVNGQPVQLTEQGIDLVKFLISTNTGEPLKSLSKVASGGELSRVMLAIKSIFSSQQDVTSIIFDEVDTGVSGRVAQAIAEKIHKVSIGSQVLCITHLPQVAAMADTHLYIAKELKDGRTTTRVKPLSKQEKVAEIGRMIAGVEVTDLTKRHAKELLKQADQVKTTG

[2] = biological target: T2, RecN, high-S gradient fraction 1 (presumed octamer) (Bacillus subtilis, UniProt P17894 1-576); assay: EMSA
T2 sequence: T1 sequence (P17894 1-576)

[3] = biological target: T3, RecN (Bacillus subtilis, UniProt P17894 1-576); assay: EMSA
T3 sequence: T1 sequence (P17894 1-576)

[4] = biological target: T3, RecN; assay: EMSA; remark: listed apart in the source
[5] = biological target: T3, RecN; assay: EMSA; remark: listed apart in the source

Nc1ncnc2c1ncn2[C@@H]1O[C@H](COP(=O)(O)OP(=O)(O)OP(O)(O)=S)[C@@H](O)[C@H]1O [ATPγS]
EMSA, nucleotide-dependent RecN-ssDNA complex (CII/CIII) assembly ([1]; weakly hydrolysable analogue, ssDNA60, 2 mM MgCl2, pH 7.5, 37 °C): weakly hydrolysable analogue (ATPγS) present, CII and CIII formation was observed

Nc1ncnc2c1ncn2[C@H]1C[C@H](O)[C@@H](COP(=O)(O)OP(=O)(O)OP(=O)(O)O)O1 [dATP]
EMSA, nucleotide-dependent RecN-ssDNA complex (CII/CIII) assembly ([1]; labelled ssDNA60 1 nM, RecN 10 nM, 2 mM MgCl2, pH 7.5, 2% PEG-6000, 37 °C, dATP 1 mM): also when ADP or dATP was present CIII and CII were formed

B1: ssDNA60 (ssDNA)
DNA: CTCCTATTATGCTCAACTTAAATGACCTACTCTATAAAGCTATAGTACTGCTATCTAATC
binding result [2]: binds | binding result [3]: binds

B2: dsDNA60 (dsDNA)
DNA 1: B1 DNA
DNA 2: GATTAGATAGCAGTACTATAGCTTTATAGAGTAGGTCATTTAAGTTGAGCATAATAGGAG
binding result [4]: no binding

B3: ssDNA15 (ssDNA)
DNA: CTCCTATTATGCTCA
binding result [5]: no binding

From paper PMC1084328 (Nucleic Acids Research, 2005)
